{"source": "the nanobody polyreactivity screen of Harvey et al. (2022)", "test": "yeast display, Sf9 membrane polyspecificity reagent, FACS + sequencing; frameworks hold sequencing errors", "summary_of_the_method": "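Synthetic nanobody libraries on Saccharomyces cerevisiae BJ5465 were galactose-induced for 36–48 hours, stained 1 hour at 4 °C with 10% biotinylated, detergent-solubilized Sf9 membrane reagent and enriched on streptavidin microbeads. FACS then separated cells into low and high (top ~1%) gates by anti-HA (expression) and streptavidin (reagent binding) fluorescence. Genes were colony-PCR amplified, MiSeq 2 × 250 sequenced and CDR-length filtered. A clone's polyreactivity label is that of its gate of origin.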", "data": [{"sequence": "QVQLVESGGGLVQAGGSLRLSCAASGSIFYYNPMGWYRQAPGKERELVATISGRGGSTYYADSVKGRFTISRDNAKNTVYLQMNILKPEDTAVYYCNTVPSHHRHTKYDYWGQGTQVTVSS", "values": [{"measurement": "polyreactivity (PSR sort gate)", "value": "low polyreactivity"}]}, {"sequence": "QVQLVESGGGLVQAGGSLRLSCAASGSIFYYNSMGWYRKAPGKEREFVAAISARGGSTYYADSVKGRFTISRDNAKNTVYLQLNSLKPEDSAVYYCAASWGMGTYSDSTFWGGYYYWGQGTQVTVSS", "values": [{"measurement": "polyreactivity (PSR sort gate)", "value": "low polyreactivity"}]}, {"sequence": "QVQLVESGGGLVQAGGSLRLSCAASGSIFYYYAMGWDRQAPGKERELVAGITGSGGRTYYADSVKGRFTISRDNAKNTVYLQMNSLKPEDTAVYYCAATRRDSTGSLYYYWGQGTQVTVSS", "values": [{"measurement": "polyreactivity (PSR sort gate)", "value": "high polyreactivity"}]}, {"sequence": "QVQLVESGGGLVQAGGSLRLSCAASGSIFYYYAMGWYRQAPGKERELVAAIDFGGGSTYYADSVKGRFTISRDNEKNTVYLQMNSLKPEDTAVYYCAARTFKDAGTAYGSWGQGTQETVSS", "values": [{"measurement": "polyreactivity (PSR sort gate)", "value": "high polyreactivity"}]}, {"sequence": "QVQLVESGGGLVQAGGSLRLSCAASGSIFYYYAMGWYRQAPGKERELVAAISGTGGSTYYADSVKGRFSISRDNAKNTVYLQMNSLKPEDTAVYYCAASFYIERHRYNYWGQGTQVTVSS", "values": [{"measurement": "polyreactivity (PSR sort gate)", "value": "high polyreactivity"}]}, {"sequence": "QVQLVESGGGLVQAGGSLRLSCAASGSIFYYYAMGWYRQAPGKERELVAAISRSGGSTYYADSVKGRFTISRDNAKNTVYVQMNSLKRDDTAVYYCAAQSRYWTYDYWGQGTQVTVSS", "values": [{"measurement": "polyreactivity (PSR sort gate)", "value": "high polyreactivity"}]}, {"sequence": "QVQLVESGGGLVQAGGSLRLSCAASGSIFYYYAMGWYRQAPGKERELVAAITRSGNTYYADSVKGRFTISRDNAKNTVYLQMNSLKPEDTAVYYCAAEYGGGYGWGQGTQVTVSS", "values": [{"measurement": "polyreactivity (PSR sort gate)", "value": "high polyreactivity"}]}, {"sequence": "QVQLVESGGGLVQAGGSLRLSCAASGSIFYYYAMGWYRQAPGKERELVAAITRSVSRTYYADSVKGRFTISRDNAKNTVYLQMNYLKPEVTAVYYCNVVGSSETSTVYYCGQGTQVTVSS", "values": [{"measurement": "polyreactivity (PSR sort gate)", "value": "high polyreactivity"}]}, {"sequence": "QVQLVESGGGLVQAGGSLRLSCAASGSIFYYYAMGWYRQAPGKERELVARITFSGGDTYYADSVKGRFTISRDNAKNTVYLQMNSLKPEDSAVYYCAAYCSYFFAWLDSYRDDYDYWGQGTQVTVSS", "values": [{"measurement": "polyreactivity (PSR sort gate)", "value": "low polyreactivity"}]}, {"sequence": "QVQLVESGGGLVQAGGSLRLSCAASGSIFYYYAMGWYRQAPGKERELVASITRGGSTYYADSVKGRFTISRDNAKNTVYLQMNSLKPEDTAVYYCNADLGAYVPFDYWGQGTQVTVSS", "values": [{"measurement": "polyreactivity (PSR sort gate)", "value": "high polyreactivity"}]}, {"sequence": "QVQLVESGGGLVQAGGSLRLSCAASGSIFYYYAMGWYRQAPGKERELVATISSGGGSTYYADSVKGRFTISRDNAKNTVYLQMNSLKPEDTAVYYCAKRRWRSYYDSWGQGTQVTVSS", "values": [{"measurement": "polyreactivity (PSR sort gate)", "value": "low polyreactivity"}]}, {"sequence": "QVQLVESGGGLVQAGGSLRLSCAASGSIFYYYAMGWYRQAPGTERELVAAIYNGGSTYYADSVKGRFTISRDNAKNTVYLQMNSLKPEDTAVYYCNAGYSYWYRDLGYDSWGQGTQVTVSS", "values": [{"measurement": "polyreactivity (PSR sort gate)", "value": "low polyreactivity"}]}, {"sequence": "QVQLVESGGGLVQAGGSLRLSCAASGSIFYYYDMGWYRQAPGKERELVAAIRGSGGSTYYADSVKGRFTISRDNAKNTVYLQMNSLKPEDTAVYYCAAEFGDQRFYRQYVRRDHWGQGTQVTVSS", "values": [{"measurement": "polyreactivity (PSR sort gate)", "value": "low polyreactivity"}]}, {"sequence": "QVQLVESGGGLVQAGGSLRLSCAASGSIFYYYGMGWYRQAPGKESDLVARISKSVGRTYYADSVKGRFTISRDNAKNTVYLQMNSLKPEDTAVYYCAASRSFQGNRYDYWGQGTQVTVSS", "values": [{"measurement": "polyreactivity (PSR sort gate)", "value": "high polyreactivity"}]}, {"sequence": "QVQLVESGGGLVQAGGSLRLSCAASGSIFYYYSMGWYRQAPGKERELVARITSGGSTKYADSVKGRFTISRDNAKYTVYLQMNSLKPEDTAVYYCAARYQYNYWGTYGSWGQGTQVTVSS", "values": [{"measurement": "polyreactivity (PSR sort gate)", "value": "high polyreactivity"}]}, {"sequence": "QVQLVESGGGLVQAGGSLRLSCAASGSIFYYYTMGWYRQAHGKESEFVATMTYSGGSTYYADSVKGRFTISRDNAKNTVYLQMNSLKPEDTAVYYCNARPRYYDWVDYWGQGTQVTVSS", "values": [{"measurement": "polyreactivity (PSR sort gate)", "value": "low polyreactivity"}]}, {"sequence": "QVQLVESGGGLVQAGGSLRLSCAASGSIFYYYVMGWYIQAPGKERELVAAISSGGGTNYADSVKGRFTISRDNAKNSVYLQMNSLNPEDTAVYYGAKASAYGLANDYDYWGQGTQVTVSS", "values": [{"measurement": "polyreactivity (PSR sort gate)", "value": "low polyreactivity"}]}]}
